Test results published in US20230080534A1, “SEMG2 ANTIBODY AND USE THEREOF” (SHANGHAI BIOTROY BIOTECHNIQUE CO., LTD., priority 2020, published 2023).

Tests used:
[1] = system: A375 human melanoma cells; test: Tumor cell killing by activated PBMC, caspase-3/7 apoptosis; type: cell-based; details: A375, SEMG2-positive, co-culture with activated PBMC 10:1
Protocol: (§1) To test the above hypothesis, the effects of different epitope-specific antibodies on tumor cell killing by activated PBMC were compared. Specifically, A375 human melanoma and LOVO human colorectal cancer cells highly expressing SEMG2 were seeded in 96-well plate. Human peripheral blood mononuclear cells (PBMC; #70025, Stem Cell) were activated with 100 ng/mL of CD3 antibody, 100 ng/mL, of CD28 antibody, and 1.0 ng/mL of IL2 (#317303; #302913; #589102, BioLegend), respectively, and co-cultured with the above tumor cells at a ratio of 10:1 in presence of fluorescent caspase-3/7 substrate (#4440, Essen Bioscience). After 1.0 hours, cells were observed under fluorescence microscope.
(§2) To verify the above hypothesis, tumor cells with high SEMG2 expression (A375, LOVO) and SEMG2-negative tumor cells (DLD1, NCM460 and NCI-H1975) were selected. Different antibodies (irrelevant mouse IgG antibodies, MM02 or MM05 antibodies) were added during the PBMC killing experiments for the tumor cells.
(§3) To verify the effect of the human antibodies on the function of activated PBMC on tumor cell killing, A375 and LOVO cells were co-cultured with activated PBMC, and H88-93, H88-96, or H88-67 antibody was added at the same time, and the apoptosis ratio of tumor cells were detected.

[2] = system: LOVO human colorectal cancer cells; test: as above; type: cell-based; details: SEMG2-positive, co-culture with activated PBMC 10:1
Protocol: as §1, §2, §3

[3] = biological target: T1, SEMG2 (Homo sapiens, UniProt Q02383); test: Competition ELISA of fully human antibody with murine antibodies for SEMG2; type: binding; details: concentration gradient of fully human antibody mixed with murine antibody
T1 sequence (Q02383 24-582): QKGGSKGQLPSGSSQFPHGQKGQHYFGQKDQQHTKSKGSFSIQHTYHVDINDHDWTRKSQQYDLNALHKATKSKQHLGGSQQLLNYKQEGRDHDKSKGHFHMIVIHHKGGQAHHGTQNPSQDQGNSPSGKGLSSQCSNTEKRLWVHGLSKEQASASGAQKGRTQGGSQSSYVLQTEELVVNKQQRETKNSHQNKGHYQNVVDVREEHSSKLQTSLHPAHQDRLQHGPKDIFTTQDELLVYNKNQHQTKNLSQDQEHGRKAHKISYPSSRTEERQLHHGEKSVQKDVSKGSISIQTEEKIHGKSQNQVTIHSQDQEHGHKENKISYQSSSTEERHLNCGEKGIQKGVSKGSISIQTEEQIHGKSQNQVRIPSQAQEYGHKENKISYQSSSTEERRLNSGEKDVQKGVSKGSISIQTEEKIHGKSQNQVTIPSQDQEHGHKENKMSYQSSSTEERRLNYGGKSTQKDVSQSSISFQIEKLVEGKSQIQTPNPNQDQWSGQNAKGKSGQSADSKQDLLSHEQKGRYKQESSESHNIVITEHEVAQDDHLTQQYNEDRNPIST
Protocol: The binding abilities of fully human antibodies and murine antibodies to SEMG2 were tested, that is, murine antibodies MM02 and MM05 and concentration gradient diluted filly human antibodies H88-93 were mixed and added as primary antibodies in a 96-well microplate coated with SEMG2. Murine monoclonal antibody bound to SEMG2 was measured using anti-mouse HRP secondary antibody. The blocking percentage is calculated according to the following formula:
Blocking percentage=[1−(A450 of experimental antibody group-Blank control)/(A450 of positive control antibody−A450 of empty control)]×100%

[4] = biological target: T2, SEMG2(497-509) fragment (Homo sapiens, UniProt Q02383); test: ELISA binding of antibodies to SEMG2(497-509) epitope
T2 construct: SEMG2(497-509) fragment and SEMG2(563-574) fragment were immobilized on the ELISA plate; made in house; host or cells: chemical synthesis
Protocol: Specifically, SEMG2 full-length protein (1-582), SEMG2(354-403) fragment, SEMG2(442-453) fragment, SEMG2(497-509) fragment and SEMG2(563-574) fragment were immobilized on the ELISA plate, and the same concentration of antibodies (MM02, MM05, MM07, MM08, MM13, MM14, HPA042767 and HPA042835) were added. Anti-mouse or anti-rabbit secondary antibodies were then used to detect the corresponding bound antibodies. MM02, MM05, MM07, MM08, MM13, and MM14 all bound to SEMG2(497509) epitope, HPA042767 bound to SEMG2 (354-403) epitope, and HPA042835 bound to […], while none of the antibodies bound to SEMG2 (442-453) control fragment.
Specifically, the preparation of polypeptide antigens and the screening of human natural antibody library were firstly performed. The SEMG2(497-509) polypeptide was synthesized and coupled to BSA and KLH, respectively, and screened in a fully human phage display antibody library. ELISA was used to select clones that bind to antigenic epitopes for preliminary screening. Different unique sequences were obtained after sequencing single colonies, sorted according to affinity sorting, and full-length antibodies were constructed from antigen-binding fragments (Fab) with relatively high affinity. The binding ability and blocking function tests were performed after purification, that is, the effect of the antibody on binding between SEMG2 and CD27 was determined by the ELISA experiment.

[5] = biological target: T3, binding between SEMG2 and CD27 (Homo sapiens, UniProt Q02383); test: Antibody blocking ELISA of SEMG2 binding to CD27-Fc; details: antibody 10 μg/mL
T3 sequence (Q02383 24-582): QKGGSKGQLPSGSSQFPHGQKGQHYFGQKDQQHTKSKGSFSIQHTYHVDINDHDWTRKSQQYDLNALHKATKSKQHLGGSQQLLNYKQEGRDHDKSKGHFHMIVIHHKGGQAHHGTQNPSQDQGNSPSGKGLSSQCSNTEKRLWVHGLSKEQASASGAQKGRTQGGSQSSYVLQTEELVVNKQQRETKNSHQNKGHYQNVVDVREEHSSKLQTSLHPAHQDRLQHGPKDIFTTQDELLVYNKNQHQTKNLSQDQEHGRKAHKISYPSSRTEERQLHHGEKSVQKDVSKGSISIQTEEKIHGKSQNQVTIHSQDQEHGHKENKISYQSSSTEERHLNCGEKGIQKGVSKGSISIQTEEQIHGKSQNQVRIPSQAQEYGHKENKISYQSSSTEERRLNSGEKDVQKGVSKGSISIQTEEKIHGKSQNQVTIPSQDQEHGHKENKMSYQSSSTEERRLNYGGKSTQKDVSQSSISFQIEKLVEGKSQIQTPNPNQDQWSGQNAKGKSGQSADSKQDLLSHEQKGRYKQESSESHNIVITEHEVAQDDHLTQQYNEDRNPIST
From the text: Because SEMG2 (497-509) sequence fragment is the key epitope of SEMG2 binding to CD27, and has a relatively short sequence, so SEMG2 (497-509) was used as an immunogen to prepare antibodies, which is theoretically easier to obtain functional antibody molecules with the function of blocking the binding between SEMG2 and CD27 than using full-length SEMG2 to prepare antibodies. For direct comparison, the differences in effective concentration of producing antibody by the two methods were verified using ELISA in the examples. Antibodies produced with SEMG2 (497-509) as immunogen and antibodies produced with full-length SEMG2 were added into the enzyme-linked immunosorbent assay (ELISA) reaction system at different concentrations (10^-2, 10^-1, 10^0, 10^1, 10^2, 10^3, 10^4 μg/mL), and the ELISA binding values were measured. The specific steps of enzyme-linked immunosorbent assay are as follows: (1) Dissolve SEMG2 protein antigen with 50 mM carbonate coating buffer (pH 9.6) to make the antigen concentration 10 μg/mL, and add into 96-well ELISA plate (purchased from Corning) at 100 μL/well, place at 4° C. overnight. (2) After discarding the coating solution on the next day, wash with PBST for three times, add 150 μL of 1% BSA to each well, and block for 2 hours at 37° C. […] (4) After washing for 5 times with PBST, add 100 of diluted HRP-labeled anti-human Fe secondary antibody, and incubate at 37° C. for 1 hour. (5) After washing with PBST for 5 times, 20 min after developing with chromogenic agent, the A450 absorption value was read using the microplate reader.
The SEMG2 (497-509) sequence was used to synthesize a polypeptide and coupled to a VLP carrier for immunization; HEK293 cells were used to express the full-length SEMG2 protein, and the purity was tested to reach 92%, and the binding activity of SEMG2 protein to CD27 was verified by ELISA. The protein and polypeptide antigens were used to immunize 10 mice respectively, and multiple immunizations were performed to enhance the effect: (1) The first immunization, 50 μg/mice of antigen, multiple subcutaneous injections together with Freund's complete adjuvant, with an interval of 3 weeks; (2) the second immunization; the same dosage and route as above, with incomplete Freund's adjuvant, and with an interval of 3 weeks; (3) the third immunization, the same dosage as above, without adjuvant, intraperitoneal injection with an interval of 3 weeks; (4) the booster immunization, the dose is 50 μg, intraperitoneal injection. 3 days after the last injection, blood was collected to measure its titer and the immune effect, and mice with higher titers were selected for hybridoma fusion screening. After subcloning, the binding of the monoclonal antibodies to the target antigens was detected by ELISA, and the function of different monoclonal antibodies in blocking the binding between SEMG2 and CD27 was measured by ELISA.
First, SEMG2(497-509) epitope-specific antibodies (for example, MM02, MM05) were compared with other epitope-specific antibodies (for example, HPA042767) for their function in blocking binding between SEMG2 and CD27 at different concentration ranges. […] The blocking function of different antibodies (irrelative mouse IgG, MM02, MM05, HPA042767) on binding between SEMG2 and CD27 was analyzed by the ELISA experiment as described in Example 11.
Further, the effects of different antibodies on the binding between SEMG2 and CD27 were compared under the condition of the same antibody concentration. In the ELISA, the same concentration (10 μg/mL) of antibody was used, and the strength of the binding between SEMG2 and CD27 was measured. […]

B1: H88-93: fully human antibody from phage library against SEMG2(497-509), VH SEQ ID NO:55, VL SEQ ID NO:58 (antibody, V domains shown)
VH: QITLKESGPTLVKPTQTLTLTCNFSGFSLTTSGVGVAWIRQPPGKALEWLALIYWDDDQRYSPSLKSRLSVTKHTSKDQVVLTMTNVGPVDTATYYCAHLSYGPGWGYYMDVWGNGTMVTVSS
VL: EIVLTQSPGTLSLSPGERASLSCRASQSVRNNYLAWYQQKPGQAPRLLIFGASNRATGIPDTFSGSGSGTDFTLTISRLEPEDFAVYYCQQYGHSPITFGQGTRLEIK
modifications: UNSURE (1)..(123) VH; UNSURE (1)..(108) VL
[1]
  apoptosis tumor cell ratio / killing by activated PBMC: significantly promote the killing
[2]
  apoptosis tumor cell ratio / killing by activated PBMC: significantly promote the killing
[3]
  competition with MM02 and MM05 for binding to SEMG2: competes
[4]
  binding to SEMG2(497-509) epitope: bind
[5]
  effect on the binding between SEMG2 and CD27: inhibited the binding
